# Data: publication PMC11220838, “Factors affecting macromolecule orientations in thin films formed in cryo-EM” (Acta Crystallographica. Section D, Structural Biology, 2024)
# “And” between values parts separate entries of the source, which are not always exact repeats. Equal values may be shown once.
# T1: Human C-reactive protein (human), P02741
# T1 chain: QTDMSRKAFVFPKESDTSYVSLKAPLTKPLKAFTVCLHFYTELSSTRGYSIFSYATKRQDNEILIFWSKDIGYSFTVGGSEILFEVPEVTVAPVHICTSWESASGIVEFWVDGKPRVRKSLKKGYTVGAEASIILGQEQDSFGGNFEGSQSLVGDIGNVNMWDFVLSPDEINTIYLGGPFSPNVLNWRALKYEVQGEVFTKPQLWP
# How the values were obtained:
# [1] = target: SARS-CoV-2 spike protein with C-terminal tag (SARS-CoV-2); experiment: cryo-EM structure
# [2] = target: T1, Human C-reactive protein (human), P02741; experiment: cryo-EM structure; single-particle cryo-EM, plunge-frozen Quantifoil 1.2/1.3 grids, 20 mM Tris pH 8, 280 mM NaCl, 5 mM CaCl2, 0.03% NaN3; no additive or CTAB, SLS, Tween 20, Tween 80, A8-35; 20°C; settings: remark: other sources report otherwise
# [3] = target: the molecule itself; experiment: cryo-EM structure; single-particle cryo-EM, plunge-frozen Quantifoil 0.6/1 grids, 25 mM HEPES pH 7.4, 50 mM NaCl; no additive or CTAB; 4 or 20°C; D3 symmetry
molecule,measurement,setting,value
SARS-CoV-2 spike protein with C-terminal tag (domain or fragment),stoichiometry N,[1],3
"Human C-reactive protein, P02741 19-224 (natural protein) QTDMSRKAFVFPKESDTSYVSLKAPLTKPLKAFTVCLHFYTELSSTRGYSIFSYATKRQDNEILIFWSKDIGYSFTVGGSEILFEVPEVTVAPVHICTSWESASGIVEFWVDGKPRVRKSLKKGYTVGAEASIILGQEQDSFGGNFEGSQSLVGDIGNVNMWDFVLSPDEINTIYLGGPFSPNVLNWRALKYEVQGEVFTKPQLWP",stoichiometry N,[2],5 and 10
"E. coli PaaZ (enzyme, source: recombinantly overexpressed, purified as described in Sathyanarayanan et al. (2019)) QQLASFLSGTWQSGRGRSRLIHHAISGEALWEVTSEGLDMAAARQFAIEKGAPALRAMTFIERAAMLKAVAKHLLSEKERFYALSAQTGATRADSWVDIEGGIGTLFTYASLGSRELPDDTLWPEDELIPLSKEGGFAARHLLTSKSGVAVHINAFNFPCWGMLEKLAPTWLGGMPAIIKPATATAQLTQAMVKSIVDSGLVPEGAISLICGSAGDLLDHLDSQDVVTFTGSAATGQMLRVQPNIVAKSIPFTMEADSLNCCVLGEDVTPDQPEFALFIREVVREMTTKAGQKCTAIRRIIVPQALVNAVSDALVARLQKVVVGDPAQEGVKMGALVNAEQRADVQEKVNILLAAGCEIRLGGQADLSAAGAFFPPTLLYCPQPDETPAVHATEAFGPVATLMPAQNQRHALQLACAGGGSLAGTLVTADPQIARQFIADAARTHGRIQILNEESAKESTGHGSPLPQLVHGGPGRAGGGEELGGLRAVKHYMQRTAVQGSPTMLAAISKQWVRGAKVEEDRIHPFRKYFEELQPGDSLLTPRRTMTEADIVNFACLSGDHFYAHMDKIAAAESIFGERVVHGYFVLSAAAGLFVDAGVGPVIANYGLESLRFIEPVKPGDTIQVRLTCKRKTLKKQRSAEEKPTGVVEWAVEVFNQHQTPVALYSILTLVARQHGDFVD",stoichiometry N,[3],6
